Assay results: article PMC11432317, “Disulfide Bond Engineering of Soluble ACE2 for Thermal Stability Enhancement” (International Journal of Molecular Sciences, 2024)

Target: T1, receptor binding domain (RBD) of the SARS-CoV-2 spike protein (residues 319-541) (SARS-CoV-2, UniProt P0DTC2 319-541)
T1 construct: also called spike RBD protein
Assay: SPR
Conditions: both partners purified

B1: I54C/K341C (M2) mutant sACE2-Fc (Fc fusion)
chain: QSTIEEQAKTFLDKFNHEAEDLFYQSSLASWNYNTNCTEENVQNMNNAGDKWSAFLKEQSTLAQMYPLQEIQNLTVKLQLQALQQNGSSVLSEDKSKRLNTILNTMSTIYSTGKVCNPDNPQECLLLEPGLNEIMANSLDYNERLWAWESWRSEVGKQLRPLYEEYVVLKNEMARANHYEDYGDYWRGDYEVNGVDGYDYSRGQLIEDVEHTFEEIKPLYEHLHAYVRAKLMNAYPSYISPIGCLPAHLLGDMWGRFWTNLYSLTVPFGQKPNIDVTDAMVDQAWDAQRIFKEAEKFFVSVGLPNMTQGFWENSMLTDPGNVQCAVCHPTAWDLGKGDFRILMCTKVTMDDFLTAHNEMGNIQYDMAYAAQPFLLRNGANEGFHEAVGEIMSLSAATPKHLKSIGLLSPDFQEDNETEINFLLKQALTIVGTLPFTYMLEKWRWMVFKGEIPKDQWMKKWWEMKREIVGVVEPVPHDETYCDPASLFHVSNDYSFIRYYTRTLYQFQFQEALCQAAKHEGPLHKCDISNSTEAGQKLFNMLRLGKSEPWTLALENVVGAKNMNVRPLLNYFEPLFTWLKDQNKNSFVGWSTDWSPYAD
notes: also called M2 sACE2-Fc
- Kd: 22.1 nM
